US20240376170A1 (BRIGHT PEAK THERAPEUTICS, published 2024)
Primed or numbered codes have the meaning given here. [ ]: non-standard residue; d: D form. Ygp(3) = O-(PEG8-amino)-tyrosine; Yn3(3) = O-(PEG9-azido)-tyrosine; hSer = N[C@@H](CCO)C(=O)O; Nle = CCCC[C@H](N)C(=O)O

T1: IL-2 receptor βγ complex on human T cells (human, UniProt P14784 27-551; P31785 23-369)
T1 sequence (looked up) 1: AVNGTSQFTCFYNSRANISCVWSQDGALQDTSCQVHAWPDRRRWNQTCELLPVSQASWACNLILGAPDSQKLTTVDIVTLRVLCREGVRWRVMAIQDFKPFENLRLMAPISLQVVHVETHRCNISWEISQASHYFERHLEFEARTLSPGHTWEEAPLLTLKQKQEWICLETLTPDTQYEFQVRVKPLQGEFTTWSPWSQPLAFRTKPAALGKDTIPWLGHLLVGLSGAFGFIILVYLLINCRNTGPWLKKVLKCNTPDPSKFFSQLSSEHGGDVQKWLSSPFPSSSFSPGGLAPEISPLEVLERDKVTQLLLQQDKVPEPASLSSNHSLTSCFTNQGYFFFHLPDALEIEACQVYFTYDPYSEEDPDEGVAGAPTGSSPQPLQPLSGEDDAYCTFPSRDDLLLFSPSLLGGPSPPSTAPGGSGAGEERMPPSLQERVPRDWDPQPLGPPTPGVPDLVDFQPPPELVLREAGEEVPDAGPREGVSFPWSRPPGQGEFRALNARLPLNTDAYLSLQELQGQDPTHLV
T1 sequence (looked up) 2: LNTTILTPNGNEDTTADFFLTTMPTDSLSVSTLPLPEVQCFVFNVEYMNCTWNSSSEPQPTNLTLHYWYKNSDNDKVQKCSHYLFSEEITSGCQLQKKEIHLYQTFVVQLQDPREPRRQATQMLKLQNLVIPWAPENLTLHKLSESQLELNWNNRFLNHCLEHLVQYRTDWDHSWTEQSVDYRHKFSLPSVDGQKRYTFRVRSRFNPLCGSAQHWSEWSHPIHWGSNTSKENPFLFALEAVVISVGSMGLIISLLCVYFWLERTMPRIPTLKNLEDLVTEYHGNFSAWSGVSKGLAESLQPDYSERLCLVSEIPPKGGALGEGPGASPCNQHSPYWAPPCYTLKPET


Molecular target: T1, IL-2 receptor βγ complex on human T …
Test: cell-based or functional assay

Row | Average EC50, pSTAT5 Assay (T cells), MMP2 cleaved molecule [nM] | Average EC50, pSTAT5 Assay (T cells), intact molecule [nM] | Binder
1 | 0.95 |  | CMP-148, MMP2 cleaved (ligand, also: MMP2-cleaved form, remnant not given here, Lys15 side chain attached moiety) APTSSSTKKTQLQLKHLLLDLQ[Nle]ILNGINNYKNPKLTR[Nle]L[hSer][Yn3(3)]KF[Ygp(3)][Nle]PKKATELKHLQCLEEELKPLEEVL[hSer]LAQSKNFHLRPRDLISNINVIVLELKGSETTF[hSer]CEYADETATIVEFLNRWITFSQSIISTLT
2 |  | 3.57 | CMP-148 (ligand, also: further groups not given here) APTSSSTKKTQLQLKHLLLDLQ[Nle]ILNGINNYKNPKLTR[Nle]L[hSer][Yn3(3)]KF[Ygp(3)][Nle]PKKATELKHLQCLEEELKPLEEVL[hSer]LAQSKNFHLRPRDLISNINVIVLELKGSETTF[hSer]CEYADETATIVEFLNRWITFSQSIISTLT
3 |  | 6.38 | CMP-150 (ligand, also: further groups not given here) APTSSSTKKTQLQLEHLLLDLK[Nle]ILNGINNYKNPKLTR[Nle]L[hSer][Yn3(3)]KF[Ygp(3)][Nle]PKKATELKHLQCLEEELKPLEEVL[hSer]LAQSKNFHLRPRDLISNINVIVLELKGSETTF[hSer]CEYADETATIVEFLNRWITFSQSIISTLT
4 | 1.29 |  | CMP-147, MMP2 cleaved (ligand, also: MMP2-cleaved form, remnant not given here, Lys13 side chain attached moiety) APTSSSTKKTQLKLEHLLLDLQ[Nle]ILNGINNYKNPKLTR[Nle]L[hSer][Yn3(3)]KF[Ygp(3)][Nle]PKKATELKHLQCLEEELKPLEEVL[hSer]LAQSKNFHLRPRDLISNINVIVLELKGSETTF[hSer]CEYADETATIVEFLNRWITFSQSIISTLT
5 | 0.92 |  | CMP-146, MMP2 cleaved (ligand, also: MMP2-cleaved form, remnant not given here, Lys11 side chain attached moiety) APTSSSTKKTKLQLEHLLLDLQ[Nle]ILNGINNYKNPKLTR[Nle]L[hSer][Yn3(3)]KF[Ygp(3)][Nle]PKKATELKHLQCLEEELKPLEEVL[hSer]LAQSKNFHLRPRDLISNINVIVLELKGSETTF[hSer]CEYADETATIVEFLNRWITFSQSIISTLT
6 |  | 46.7 | CMP-149 (ligand, also: further groups not given here) APTSSSTKKTQLQLEHLLKDLQ[Nle]ILNGINNYKNPKLTR[Nle]L[hSer][Yn3(3)]KF[Ygp(3)][Nle]PKKATELKHLQCLEEELKPLEEVL[hSer]LAQSKNFHLRPRDLISNINVIVLELKGSETTF[hSer]CEYADETATIVEFLNRWITFSQSIISTLT
